Publication PMC12947862, “Oligomerization enables the selective targeting of an intrinsically disordered region by a small molecule” (Science Advances, 2026)

B1: AR AD fragment transactivation unit 5 (Tau-5*; residues 330 to 448) [human (from the printed UniProt entry)] / itself (parent)
chain: AAGSSGTLELPSTLSLYKSGALDEAAAYQSRDYYNFPLALAGPPPPPPPPHPHARIKLENPLDYGSAWAAAAAQCRYGDLASLHGAGAAGPGSGSPSAAASSSWHTLFTAEEGQLYGPC

Variants of: B1
Assay: 2D 1H-15N NMR, concentration-dependent CSPs (self-association)
Details: with itself; protein concentration from 25 to 400 μM; read off a plot

Variant | response [p.p.m.]
chain 1 A69P | 0.005
chain 1 C75Y | 0.019
chain 1 G65A S66A G78A | 0.02
chain 1 G78A | 0.013
chain 1 L107P | 0.0065
chain 1 W104A H105A F108A | 0.0068
